Assay results from PMC11996858, “Cathepsin K cleavage of angiopoietin-2 creates detrimental Tie2 antagonist fragments in sepsis” (The Journal of Clinical Investigation, 2025).

Molecular target: the molecule itself
Experiment: non-reducing SDS-PAGE with Western blot; recombinant ANGPT2 incubated with CM-Mq^Veh or CM-Mq^LPS (serum-free conditioned media of RAW264.7 cells), then SDS-PAGE under nonreducing conditions against reduced conditions (10% beta-mercaptoethanol) and Western analysis for ANGPT2

B1: recombinant human angiopoietin-2, full length (ligand, UniProt O15123 19-496, looked up)
chain: YNNFRKSMDSIGKKQYQVQHGSCSYTFLLPEMDNCRSSSSPYVSNAVQRDAPLEYDDSVQRLQVLENIMENNTQWLMKLENYIQDNMKKEMVEIQQNAVQNQTAVMIEIGTNLLNQTAEQTRKLTDVEAQVLNQTTRLELQLLEHSLSTNKLEKQILDQTSEINKLQDKNSFLEKKVLAMEDKHIIQLQSIKEEKDQLQVLVSKQNSIIEELEKKIVTATVNNSVLQKQQHDLMETVNNLLTMMSTSNSAKDPTVAKEEQISFRDCAEVFKSGHTTNGIYTLTFPNSTEEIKAYCDMEAGGGGWTIIQRREDGSVDFQRTWKEYKVGFGNPSGEYWLGNEFVSQLTNQQRYVLKIHLKDWEGNEAYSLYEHFYLSSEELNYRIHLKGLTGTAGKISSISQPGNDFSTKDGDNDKCICKCSQMLTGGWWFDACGPSNLNGMYYPQRQNTNKFNGIKWYYWKGSGYSLKATTMMIRPADF
notes: angiopoietin-2 (ANGPT2), human, recombinant full-length protein of about 75 kDa (glycosylated); As a secreted recombinant protein it probably lacks the signal peptide (surmised); also called ANGPT2; full-length ANGPT2; source: bought: R&D Systems
Question: For B1, which “stoichiometry N” value is on record?
Answer: ≥ 2
